± gives the uncertainty stated by the source.
Experiment: protein stability index of a GFP-peptide fusion (yeast GPS) (PSI 1-4); higher = more stable; sorted into four equal gates, so the index is relative within each strain
In short: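 Yeast carrying a pooled library were grown to mid-log phase in leucine-free medium. Each library plasmid expresses Cherry and has a tiled 17-residue yeast protein peptide fused downstream of GFP. Cells were sorted into four equal gates by GFP/Cherry ratio, and plasmids from each gate were PCR-amplified, Illumina-sequenced and assigned to strains by barcode. Summing, across gates, the read frequency times the gate number gave each peptide's protein stability index.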

Sequence	protein stability index (doa10∆)	protein stability index (pdr5∆)	protein stability index (ubr1∆)	protein stability index (san1∆)
MYNGKDRAQNSYQPMYQ [SSN3]	3.31 ± 0.21	2.48 ± 0.23	3.2 ± 0.063	
MYQMITMGGNAELELVD [SMC4]	2.81 ± 0.074	2.47 ± 0.1	2.54 ± 0.072	2.6 ± 0.08
NAAPANVTGGKAANFIQ [SWI1]	2.52 ± 0.05	1.86 ± 0.045	2.46 ± 0.049	2.48 ± 0.086
NAARKAEASGEAAEEAE [RPS9B]	3.81 ± 0.29	3.39 ± 0.24	2.89 ± 0.28	
NAASGSNSNVTNPSSIF [YOR098C/NUP1]	2.83 ± 0.049	2.74 ± 0.047	2.73 ± 0.049	2.3 ± 0.049
NAEATKEEFSSAENRDE [CSE2]	3.14 ± 0.082	3.25 ± 0.086	3.28 ± 0.069	3.35 ± 0.059
NAGTNDNSFNELTDNMS [MCD1]	3.01 ± 0.082	3.13 ± 0.076	3.3 ± 0.05	3.15 ± 0.042
NAIRIGELFLNESWKSS [SRP72]	3.39 ± 0.14	3.21 ± 0.083	3.12 ± 0.062	2.62 ± 0.14
NAKIIDAEVAQFLEQGL [SRP68]	2.83 ± 0.057	2.59 ± 0.045	3.08 ± 0.041	2.12 ± 0.073
NALDKLRNNLNSLIEEI [YCG1]	3.22 ± 0.12	3.26 ± 0.1	3.08 ± 0.092	2.27 ± 0.21
NASKVISTPIINAVLVN [RPO31]	1.63 ± 0.11	2.19 ± 0.14		1.74 ± 0.2
NATEVQKESDAKNETNS [ITC1]	2.67 ± 0.077	3.05 ± 0.11	2.59 ± 0.2	2.67 ± 0.11
NAYASFLQRQGKLEVPG [RPS19A]		3.24 ± 0.19	3.2 ± 0.094	3.21 ± 0.12
NCEYEDPPNEGDPFDYK [RPB3]	3.16 ± 0.13	3.4 ± 0.12	3.14 ± 0.06	3.36 ± 0.11
NCKKKKKRKKKNKSAID [RMP1]	2.57 ± 0.1	2.67 ± 0.13	3.37 ± 0.16	2.79 ± 0.089
NDFFDNGDNLYGNDEEV [RPN4]	1.21 ± 0.2	1.62 ± 0.29	1.05 ± 0.067	
NDFFPGEVVYLRKQKDS [ITC1]	2.03 ± 0.062	1.39 ± 0.059	1.48 ± 0.081	1.35 ± 0.12
NDFKKIGRENENENEDD [POP5]	3.22 ± 0.11	3.28 ± 0.097	2.79 ± 0.11	3.16 ± 0.067
NDHSKSANPKKTTITRV [SWI3]	2.9 ± 0.11	3.09 ± 0.092	2.97 ± 0.051	3.14 ± 0.08
NDIKLFVDDTNVYRVTV [PRP8]	2.58 ± 0.084	2.63 ± 0.091	2.57 ± 0.053	2.43 ± 0.072

Sequence	protein stability index (doa10∆)	protein stability index (pdr5∆)	protein stability index (ubr1∆)	protein stability index (san1∆)
NDSETHTEDESTKELKF [BRN1]	3.2 ± 0.17	3.13 ± 0.13	3.19 ± 0.068	3.17 ± 0.094
NDTISEDILQGIFNLLN [NUT1]	2.38 ± 0.066	2.32 ± 0.057	2.6 ± 0.088	2.13 ± 0.12
NEAGRKLSDIFLSKPSK [SNF2]	2.94 ± 0.08	3.27 ± 0.087	3.04 ± 0.093	3.21 ± 0.081
NEAPPKTSLADWQKEDG [YMR153W/NUP53]	2.74 ± 0.13	3.14 ± 0.1	2.93 ± 0.15	2.56 ± 0.16
NEDENIQLIKILNSHFD [YJL041W/NSP1]	2.77 ± 0.052	2.98 ± 0.056	2.85 ± 0.037	3.142 ± 0.03
NEENDLDVDPAKRIRVS [RPB2]	3.01 ± 0.07	3 ± 0.07	3.02 ± 0.047	3.11 ± 0.12
NEKEQLSFINPKTGKVE [SEC65]	2.98 ± 0.11	2.89 ± 0.11	2.99 ± 0.059	2.98 ± 0.064
NELQEERLKVPILVTLV [POP6]	1.67 ± 0.034	1.99 ± 0.036	1.7 ± 0.023	1.84 ± 0.053
NEMLLKRVTKVKRLLFT [MTW1]	1.26 ± 0.054	1.56 ± 0.049	1.42 ± 0.036	1.21 ± 0.11
NEQEEKSEEVKAEDDTG [RPC37]	3.2 ± 0.17		2.85 ± 0.17	2.94 ± 0.2
NETIIDNFSPHQNVIIG [SMC3]		2.56 ± 0.17		2.29 ± 0.13
NEVCLEKENRFEIVDRE [SMC4]	2.62 ± 0.089	2.92 ± 0.11	3.3 ± 0.082	3.1 ± 0.1
NEVYSAYVVNDTAPKPN [DLS1]	3.47 ± 0.12	3.1 ± 0.12	3.25 ± 0.066	2.95 ± 0.099
NFLETIASTEKPENKTD [SIR4]	2.94 ± 0.1	2.93 ± 0.089	3.13 ± 0.092	2.77 ± 0.11
NFLLPDIFGDSELFDEW [ISW2]	2.25 ± 0.059	2.46 ± 0.076	2.72 ± 0.059	2.79 ± 0.07
NFNASLQLTTNTEQGDS [SNM1]	2.02 ± 0.039	2.3 ± 0.064	1.85 ± 0.071	2.49 ± 0.055
NGDKKVDIYSLPLISTD [YMR129W/POM152]	2.88 ± 0.076	2.76 ± 0.056	3.03 ± 0.051	2.88 ± 0.034
NGGDKELEMIGGTNEDD [YCS4]	3.25 ± 0.22	2.79 ± 0.21	3.05 ± 0.27	2.46 ± 0.22
NGGNNTQQPGTNSHYNN [SNF2]	3.05 ± 0.058	3.16 ± 0.063	3.05 ± 0.047	3.04 ± 0.054

— the supplement of paper PMC9732359
